The supplement of paper PMC6755084

B1: F1*; the commonest letter at each place (parent)
chain: GAGACCGCAACTGAAAAGTTGTTATCACTTGTCGTAAGACACTTTGGATGGGTTGAAGTTCTGCACGTAGAAGCAAAAGGC

Variants of: B1
Test: fraction ligated after 30 min (ligated reads / total reads); higher = more ligase activity
Settings: with F1*sub RNA substrate (template-directed ligation), 42 °C
Summary of the method: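 Oligo-pool templates of ligase ribozyme variants were PCR-amplified, T7-transcribed and gel-purified. Ligated and unligated bands were gel-separated, reverse transcribed with barcoded primers, and MiSeq-sequenced; core bases were filtered at quality ≥20. Fraction ligated per variant was ligated reads over total reads.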

Row | Variant | fraction ligated
1 | GAGACCGCAACTGAAAAGTTGTTATCACTTGTCGTAAGACACTCTGGATGGGTTGAAGTTCTGCACGTAGAAGCAAAAGGC [T44C] | 0.837
2 | GAGACCGCAACTGAAAAGTTGTTATCACTTGTCGTAAGACACTCTGGCTGGGTTGAAGTTCTGCACGTAGAAGCAAAAGGC [T44C A48C] | 0.783
3 | GAGACCGCAACTGAAAAGTTGTTATCACTTGTCGTAAGACACTCTGGGTGGGTTGAAGTTCTGCACGTAGAAGCAAAAGGC [T44C A48G] | 0.821
4 | GAGACCGCAACTGAAAAGTTGTTATCACTTGTCGTAAGACACTCTGGTTGGGTTGAAGTTCTGCACGTAGAAGCAAAAGGC [T44C A48T] | 0.781
5 | GAGACCGCAACTGAAAAGTTGTTATCACTTGTCGTAAGACACTCTGGATGGGTTGCAGTTCTGCACGTAGAAGCAAAAGGC [T44C A56C] | 0.791
6 | GAGACCGCAACTGAAAAGTTGTTATCACTTGTCGTAAGACACTCTGGATGGGTTGGAGTTCTGCACGTAGAAGCAAAAGGC [T44C A56G] | 0.793
7 | GAGACCGCAACTGAAAAGTTGTTATCACTTGTCGTAAGACACTCTGGATGGGTTGTAGTTCTGCACGTAGAAGCAAAAGGC [T44C A56T] | 0.78
8 | GAGACCGCAACTGAAAAGTTGTTATCACTTGTCGTAAGACACTCTGGATGGGTTGACGTTCTGCACGTAGAAGCAAAAGGC [T44C A57C] | 0.744
9 | GAGACCGCAACTGAAAAGTTGTTATCACTTGTCGTAAGACACTCTGGATGGGTTGAGGTTCTGCACGTAGAAGCAAAAGGC [T44C A57G] | 0.802
10 | GAGACCGCAACTGAAAAGTTGTTATCACTTGTCGTAAGACACTCTGGATGGGTTGATGTTCTGCACGTAGAAGCAAAAGGC [T44C A57T] | 0.806
11 | GAGACCGCAACTGAAAAGTTGTTATCACTTGTCGTAAGACACTCTAGATGGGTTGAAGTTCTGCACGTAGAAGCAAAAGGC [T44C G46A] | 0.778
12 | GAGACCGCAACTGAAAAGTTGTTATCACTTGTCGTAAGACACTCTCGATGGGTTGAAGTTCTGCACGTAGAAGCAAAAGGC [T44C G46C] | 0.8
13 | GAGACCGCAACTGAAAAGTTGTTATCACTTGTCGTAAGACACTCTTGATGGGTTGAAGTTCTGCACGTAGAAGCAAAAGGC [T44C G46T] | 0.787
14 | GAGACCGCAACTGAAAAGTTGTTATCACTTGTCGTAAGACACTCTGAATGGGTTGAAGTTCTGCACGTAGAAGCAAAAGGC [T44C G47A] | 0.772
15 | GAGACCGCAACTGAAAAGTTGTTATCACTTGTCGTAAGACACTCTGCATGGGTTGAAGTTCTGCACGTAGAAGCAAAAGGC [T44C G47C] | 0.0629
16 | GAGACCGCAACTGAAAAGTTGTTATCACTTGTCGTAAGACACTCTGTATGGGTTGAAGTTCTGCACGTAGAAGCAAAAGGC [T44C G47T] | 0.152
17 | GAGACCGCAACTGAAAAGTTGTTATCACTTGTCGTAAGACACTCTGGATAGGTTGAAGTTCTGCACGTAGAAGCAAAAGGC [T44C G50A] | 0.406

Row | Variant | fraction ligated
18 | GAGACCGCAACTGAAAAGTTGTTATCACTTGTCGTAAGACACTCTGGATCGGTTGAAGTTCTGCACGTAGAAGCAAAAGGC [T44C G50C] | 0.224
19 | GAGACCGCAACTGAAAAGTTGTTATCACTTGTCGTAAGACACTCTGGATTGGTTGAAGTTCTGCACGTAGAAGCAAAAGGC [T44C G50T] | 0.691
20 | GAGACCGCAACTGAAAAGTTGTTATCACTTGTCGTAAGACACTCTGGATGGGTTAAAGTTCTGCACGTAGAAGCAAAAGGC [T44C G55A] | 0.815
21 | GAGACCGCAACTGAAAAGTTGTTATCACTTGTCGTAAGACACTCTGGATGGGTTCAAGTTCTGCACGTAGAAGCAAAAGGC [T44C G55C] | 0.754
22 | GAGACCGCAACTGAAAAGTTGTTATCACTTGTCGTAAGACACTCTGGATGGGTTTAAGTTCTGCACGTAGAAGCAAAAGGC [T44C G55T] | 0.779
23 | GAGACCGCAACTGAAAAGTTGTTATCACTTGTCGTAAGACACTCAGGATGGGTTGAAGTTCTGCACGTAGAAGCAAAAGGC [T44C T45A] | 0.768
24 | GAGACCGCAACTGAAAAGTTGTTATCACTTGTCGTAAGACACTCCGGATGGGTTGAAGTTCTGCACGTAGAAGCAAAAGGC [T44C T45C] | 0.747
25 | GAGACCGCAACTGAAAAGTTGTTATCACTTGTCGTAAGACACTCGGGATGGGTTGAAGTTCTGCACGTAGAAGCAAAAGGC [T44C T45G] | 0.191
26 | GAGACCGCAACTGAAAAGTTGTTATCACTTGTCGTAAGACACTCTGGAAGGGTTGAAGTTCTGCACGTAGAAGCAAAAGGC [T44C T49A] | 0.737
27 | GAGACCGCAACTGAAAAGTTGTTATCACTTGTCGTAAGACACTCTGGACGGGTTGAAGTTCTGCACGTAGAAGCAAAAGGC [T44C T49C] | 0.494
28 | GAGACCGCAACTGAAAAGTTGTTATCACTTGTCGTAAGACACTCTGGAGGGGTTGAAGTTCTGCACGTAGAAGCAAAAGGC [T44C T49G] | 0.772
29 | GAGACCGCAACTGAAAAGTTGTTATCACTTGTCGTAAGACACTGTGGATGGGTTGAAGTTCTGCACGTAGAAGCAAAAGGC [T44G] | 0.844
30 | GAGACCGCAACTGAAAAGTTGTTATCACTTGTCGTAAGACACTGTGGCTGGGTTGAAGTTCTGCACGTAGAAGCAAAAGGC [T44G A48C] | 0.757
31 | GAGACCGCAACTGAAAAGTTGTTATCACTTGTCGTAAGACACTGTGGGTGGGTTGAAGTTCTGCACGTAGAAGCAAAAGGC [T44G A48G] | 0.787
32 | GAGACCGCAACTGAAAAGTTGTTATCACTTGTCGTAAGACACTGTGGTTGGGTTGAAGTTCTGCACGTAGAAGCAAAAGGC [T44G A48T] | 0.782
33 | GAGACCGCAACTGAAAAGTTGTTATCACTTGTCGTAAGACACTGTGGATGGGTTGCAGTTCTGCACGTAGAAGCAAAAGGC [T44G A56C] | 0.775
34 | GAGACCGCAACTGAAAAGTTGTTATCACTTGTCGTAAGACACTGTGGATGGGTTGGAGTTCTGCACGTAGAAGCAAAAGGC [T44G A56G] | 0.752
